From patent US20250388703A1
pKd: −log10 of the molar value.

Assays:
[1] = target: Human CD28-his (ACROBiosystems CD8-H52H3) (human) (UniProt P10747); test: column 'CD28 affinity (nM)'; assay not named on the sheet; BLI on human CD28-His per Example 1
[2] = target: Human CD3 E/D dimer (heterodimeric construct of human CD3 epsilon and CD3 delta domains, ACROBiosystems CDD-H52Wa) (human) (UniProt P07766); test: column 'CD3 affinity (nM)'; assay not named on the sheet; BLI on human CD3 epsilon/delta-His per Example 1
Human CD3 E/D dimer (heterodimeric construct of human CD3 epsilon and CD3 delta domains, ACROBiosystems CDD-H52Wa) (human), sequence (P07766 23-126 limits assumed, stated change not applied, chain 1 of 2): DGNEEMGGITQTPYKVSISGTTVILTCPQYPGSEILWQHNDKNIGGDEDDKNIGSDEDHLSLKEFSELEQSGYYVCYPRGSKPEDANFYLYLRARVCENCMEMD
Human CD3 E/D dimer (heterodimeric construct of human CD3 epsilon and CD3 delta domains, ACROBiosystems CDD-H52Wa) (human), sequence (P04234 22-105 limits assumed, stated change not applied, chain 2 of 2, further chain): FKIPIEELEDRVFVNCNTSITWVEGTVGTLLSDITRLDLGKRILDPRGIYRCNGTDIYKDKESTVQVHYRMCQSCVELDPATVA

DLL3 (human) = DLL3 (human) (UniProt Q9NYJ7); test: not named on the sheet; Example 1 describes flow cytometry on CHO-K1 cells over-expressing DLL3
DLL3 (human), sequence (Q9NYJ7 27-492 limits assumed): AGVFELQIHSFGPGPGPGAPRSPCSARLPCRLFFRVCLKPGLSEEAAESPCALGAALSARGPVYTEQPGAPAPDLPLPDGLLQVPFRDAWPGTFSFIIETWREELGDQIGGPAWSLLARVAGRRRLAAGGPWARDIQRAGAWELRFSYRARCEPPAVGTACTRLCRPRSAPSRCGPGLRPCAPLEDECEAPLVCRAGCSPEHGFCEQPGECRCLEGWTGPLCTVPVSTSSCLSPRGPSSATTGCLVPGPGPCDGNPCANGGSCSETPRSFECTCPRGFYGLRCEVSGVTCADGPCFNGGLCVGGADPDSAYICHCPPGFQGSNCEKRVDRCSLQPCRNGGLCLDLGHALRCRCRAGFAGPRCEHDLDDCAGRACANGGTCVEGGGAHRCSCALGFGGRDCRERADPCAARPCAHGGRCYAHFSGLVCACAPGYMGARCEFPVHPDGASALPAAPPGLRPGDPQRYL

[3] = target: Human CD3 E/D dimer (heterodimeric construct of human CD3 epsilon and CD3 delta domains, ACROBiosystems CDD-H52Wa) (human) (UniProt P07766); test: BLI, CD3E/D-His on anti-His probes, 1:1 fit

pKd [1] | pKd [2] | DLL3 affinity (DLL3 (human)) | Fold reduction in CD3 affinity compared to Tarlatamab [3] | pKd [3] | Substance
8.36 | 7.64 | – | – | – | 328_BM (SAR443216)
– | 8.52 | 0.2 nM | 1 fold | 8.70 | AMG757 (Tarlatamab, BM) (bispecific antibody)
